The target in test [1] is T1, PSMA (Prostate-Specific Membrane Antigen), glutamate carboxypeptidase 2 (UniProt Q04609 1-750). The experiment in a line: FACS; LNCaP-AR cells. For orientation: A flow cytometer gives signals particle by particle.
Test [2] concerns the target T1, PSMA (Prostate-Specific Membrane …). The experiment in a line: FACS; C4-2 XCL cells.
For test [3] the target is unchanged. The experiment in a line: FACS; table prints γ2 EH2, curve legend prints γ1 EH1.

B1: IAB2M γ1 EH1 (other)
chain: DIVMTQSPSSLSASVGDRVTITCKASQDVGTAVDWYQQKPGKAPKLLIYWASTRHTGVPDRFTGSGSGTDFTLTISSLQPEDFADYFCQQYNSYPLTFGGGTKLEIKGSTSGGGSGGGSGGGGSSEVQLVQSGAEVKKPGASVKISCKTSGYTFTEYTIHWVKQASGKGLEWIGNINPNNGGTTYNQKFEDRATLTVDKSTSTAYMELSSLRSEDTAVYYCAAGWNFDYWGQGTTVTVSSEPKSCDKTHTCPPCGGGSSGGGSGGQPREPQVYTLPPSRDELTKNQVSLTCLVKGFYPSDIAVEWESNGQPENNYKTTPPVLDSDGSFFLYSKLTVDKSRWQQGNVFSCSVMHEALHNHYTQKSLSLSPGK
As for B1, the EC50 in test [1] turned out to be 0.05 nM; in test [2], 0.4 nM.

B2: IAB2M γ2 EH2 (other)
chain: DIVMTQSPSSLSASVGDRVTITCKASQDVGTAVDWYQQKPGKAPKLLIYWASTRHTGVPDRFTGSGSGTDFTLTISSLQPEDFADYFCQQYNSYPLTFGGGTKLEIKGSTSGGGSGGGSGGGGSSEVQLVQSGAEVKKPGASVKISCKTSGYTFTEYTIHWVKQASGKGLEWIGNINPNNGGTTYNQKFEDRATLTVDKSTSTAYMELSSLRSEDTAVYYCAAGWNFDYWGQGTTVTVSSERKSCVECPPCPGGGSSGGGSGGQPREPQVYTLPPSREEMTKNQVSLTCLVKGFYPSDIAVEWESNGQPENNYKTTPPMLDSDGSFFLYSKLTVDKSRWQQGNVFSCSVMHEALHNHYTQKSLSLSPGK
For B2, the figures for the EC50 in test [1] and in test [3] were 0.05 nM and 0.176 nM, respectively.

Broadly, the EC50 is the midpoint of the concentration-response curve.

These data come from patent publication US20220089730A1 (published 2022).
